Usually IC50 stands for the concentration that inhibits the measured activity by half. For orientation: EC50 means the concentration needed to bring the measured effect to its halfway point.

The results in this text go back to patent publication US20230272086A1 (CHIA TAI TIANQING PHARMACEUTICAL GROUP, published 2023).

Test [1] addresses recombinant protein containing hST2 extracellular domain with human antibody heavy chain Fc tag (hST2-ECD-hFc) (human). As to the kind of experiment: competition ELISA, coated hST2-ECD-hFc, antibody then biotin-labeled hIL33 Avitag (competitor). As to the method:
Whether the anti-ST2 antibodies were able to block the binding of hIL33 to hST2 was determined based on ELISA. A high-adsorption 96-well plate was coated with 2 µg/mL hST2-ECD-hFc at 100 µL/well and incubated overnight at 4° C. After the antigen not adsorbed was well washed off, the non-specific binding sites were blocked with a blocking buffer (PBST containing 1% bovine serum albumin). After the plate was washed three times with a washing buffer (PBST, PBS containing 0.05% (v/v) Tween 20), the anti-ST2 antibodies (serially diluted 2-fold from an initial concentration of 66.67 nM to 8 concentrations) were added at 100 µL/well, and the plate was incubated at 37° C. for 1 h After the plate was washed 3 times with the washing buffer, 100 µL of biotin-labeled hIL33 Avitag (with a concentration of 0.1 µg/mL) was added to each well, and the plate was incubated at 37° C. for 1 h. After the plate was washed 3 times with the washing buffer, a 1:1000 diluted secondary antibody Avidin HRP (Jackson immunoresearch, 016-030-084) was added at 100 µL/well, and the plate was incubated at room temperature for 1 h After the plate was washed with the washing buffer, the substrate TMB solution (Thermo, 00-4201-56) was added at 100 µL/well, and the plate was incubated at room temperature for 3 min. 50 µL of a stop solution (2 N H₂SO₄) was added to terminate the reactions. Colorimetric signals were generated and read at 450 nm using a plate reader (PE, Envision). The data were analyzed using GraphPad Prism5, and the IC₅₀ values were calculated.
The humanized antibodies hz31C81-1.1 (the amino acid sequence of the heavy chain set forth in SEQ ID NO: 75 and the amino acid sequence of the light chain set forth in SEQ ID NO: 81) and hz31C8-1.2 (the amino acid sequence of the heavy chain set forth in SEQ ID NO: 77 and the amino acid sequence of the light chain set forth in SEQ ID NO: 81) were subjected to affinity, binding, blocking and cell function analyses using the methods described in Example 4, Example 5, Example 6, Example 7, Example 8, Example 9 and Example 10.

For test [2], the target named is T1, recombinant protein containing hST2 extracellular domain with mouse antibody heavy chain Fc tag (hST2-ECD-mFc) (human).
T1 construct: Used for SPR and for ELISA of chimeric and humanized antibodies; also called human ST2 antigen
T1 chain: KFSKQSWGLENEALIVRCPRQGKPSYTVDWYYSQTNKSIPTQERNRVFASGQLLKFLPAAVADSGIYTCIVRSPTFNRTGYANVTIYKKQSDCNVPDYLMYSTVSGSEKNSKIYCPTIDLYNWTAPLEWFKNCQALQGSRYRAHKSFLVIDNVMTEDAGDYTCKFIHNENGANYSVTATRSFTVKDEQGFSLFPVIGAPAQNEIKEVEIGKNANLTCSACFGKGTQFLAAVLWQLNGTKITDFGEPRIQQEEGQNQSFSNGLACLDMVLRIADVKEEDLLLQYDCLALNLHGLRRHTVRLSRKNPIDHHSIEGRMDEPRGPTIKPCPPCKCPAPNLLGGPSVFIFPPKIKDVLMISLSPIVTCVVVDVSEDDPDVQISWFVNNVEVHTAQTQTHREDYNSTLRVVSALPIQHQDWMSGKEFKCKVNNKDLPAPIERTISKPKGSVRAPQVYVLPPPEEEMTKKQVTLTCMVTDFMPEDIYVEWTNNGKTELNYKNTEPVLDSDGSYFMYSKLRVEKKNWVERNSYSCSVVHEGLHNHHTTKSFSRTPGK
As to the kind of experiment: ELISA, plate coated with hST2-ECD-mFc, antibody not heated. As to the method:
The anti-ST2 antibodies were diluted with PBS buffer to a concentration of 1.5 mg/mL. […], the samples were assayed by ELISA for their binding activity for an antigen The ELISA procedure is as follows: A 96-well plate was coated with 2 µg/mL hST2-ECD-mFc as the antigen at 100 µL/well and incubated at 4° C. overnight. After the antigen not adsorbed was well washed off, the non-specific binding sites were blocked with a blocking buffer (PBST containing 1% bovine serum albumin). After the plate was washed three times with a washing buffer (PBST, PBS containing 0.05% (v/v) Tween 20), the anti-ST2 antibodies (serially diluted 3-fold from an initial concentration of 1.5 µg/mL to 8 concentrations) were added at 100 µL/well, and the plate was incubated at 37° C. for 1 h. […] After the plate was incubated at room temperature for 5 min, a stop solution (2 N H₂SO₄) was added to stop the reactions. The signals were read at 450 nm using a plate reader (PE, Envision). The data were analyzed using GraphPad Prism5, and the EC₅₀ values were calculated.
On the technique in general: An ELISA detects its analyte on a solid surface through an enzyme-linked reagent.

B1: Humanized 31C8-1.1 (antibody, human IgG2, kappa, V domains shown)
VH: EVQLVQSGAEVKKPGATVKISCKASGYIFIDSEMHWVQQAPGKGLEWMGAIDPETGDTVYAEKFQGRVTITADKSSSTAYMELSSLRSEDTAVYYCTGSTTDYYFAYWGQGTLVTVSS
VL: DIQMTQSPSSLSASVGDRVTITCRSSKSLLHSNGIIYLYWYQQKPGKAPKLLIYQLSNLASGVPSRFSSSGSGTDFTLTISSLQPEDFATYYCAQNLELPFTFGQGTKVEIKR
notes: also called hz31C8-1.1; hz31C81-1.1
In the case of B1, the IC50 in test [1] came to 1.89 nM. The EC50 in test [2] came to 0.0906 nM.

B2: Humanized 31C8-1.2 (antibody, human IgG2, kappa, V domains shown)
VH: QVQLVQSGAKVKKPGATVKISCKASGYIFIDSEMHWVQQAPGKGLEWMGAIDPETGDTVYAKKFKGRVTITADKSSSTAYMELSSLRSEDTAVYYCTGSTTDYYFAYWGQGTLVTVSS
VL: DIQMTQSPSSLSASVGDRVTITCRSSKSLLHSNGIIYLYWYQQKPGKAPKLLIYQLSNLASGVPSRFSSSGSGTDFTLTISSLQPEDFATYYCAQNLELPFTFGQGTKVEIKR
notes: also called hz31C8-1.2; hz31C81-1.2
With B2, the IC50 in test [1] was found to be 2.24 nM. Moreover, in test [2], the EC50 amounted to 0.092 nM.

B3: GSK3772847 (antibody STLM208 in CN104411333, prepared in-house) (antibody, human IgG2, kappa, V domains shown)
VH: EVQLLESGGGLVQPGGSLRLSCAASGFTFSIYDMIWVRQAPGKGLEWVSSIRGEGGGTYYADSVKGRFTISRDNSKNTLYLQMNSLRAEDTAVYYCARDPWSTEGSFFVLDYWGQGTLVTVSS
VL: EIVLTQSPATLSLSPGERATLSCRASQSVDDDLAWYQQKPGQAPRLLIYDASNRATGIPARFSGSGSGTDFTLTISSLEPEDFAVYYCQQYITAPLTFGQGTKVEIKR
notes: Control anti-ST2 antibody
B3: the IC50 in test [1] worked out at 2.53 nM. For the same molecule, the EC50 in test [2] worked out at 0.109 nM.

B4: RG6149 (antibody Ab2 in CN104334582, prepared in-house) (antibody, human IgG2, kappa, V domains shown)
VH: EVQLVQSGAEVKKPGESLKISCKGSGYSFTNYWIGWVRQMPGKGLEWMGIIYPGNSDTRFSPSFQGQVTISADKSITTAYLQWSSLKASDTAMYYCARHGTSSDYYGLDVWGQGTTVTVSS
VL: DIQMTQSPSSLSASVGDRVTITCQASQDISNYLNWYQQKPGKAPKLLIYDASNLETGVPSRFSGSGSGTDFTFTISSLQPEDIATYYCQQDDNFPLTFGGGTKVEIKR
notes: Control anti-ST2 antibody
As for B4, the IC50 in test [1] stood at 2.15 nM. Also, in test [2], the EC50 is 0.143 nM.

B5: Chimeric 31C8 (antibody, human IgG2, kappa, V domains shown)
VH: QVQLQQSGPELVRPGASVTLSCKASGYIFIDSEMHWVKQTPVHGLEWIGAIDPETGDTVYNQKFKGKATLTADKSSSTASMELSSLTSEDSAVYYCTGSTTDYYFAYWGQGTTLTVSS
VL: DIVMTQAAFSNPVTLGTSASISCRSSKSLLHSNGIIYLYWYLQKPGQSPQLLIYQMSNLASGVPDRFSSSGSGTDFTLRISRVEAEDVGVYYCAQNLELPFTFGSGTKLEIKR
notes: also called xi31C8
Consider B5, for which the IC50 in test [1] came out at 1.93 nM. Further, the EC50 in test [2] was 0.0744 nM.
